{"source": "paper PMC6934326", "about": "“A kinase-dependent checkpoint prevents escape of immature ribosomes into the translating pool” (PLoS Biology, 2019)", "key": {"Nob1": {"test_system": "Nob1", "assay": "EMSA", "conditions": "40 mM HEPES pH 7.6, 50 mM KCl, 10 mM MgCl2, 10 min at 30 C; trace 32P RNA prefolded at 65 C in 40 mM HEPES pH 7.6, 100 mM KCl, 2 mM MgCl2; 6% acrylamide/THEM …"}, "MBP-Pno1": {"molecular_target": "T1, MBP-Pno1 (Saccharomyces cerevisiae (strain ATCC …, UniProt Q99216))", "T1 chain": "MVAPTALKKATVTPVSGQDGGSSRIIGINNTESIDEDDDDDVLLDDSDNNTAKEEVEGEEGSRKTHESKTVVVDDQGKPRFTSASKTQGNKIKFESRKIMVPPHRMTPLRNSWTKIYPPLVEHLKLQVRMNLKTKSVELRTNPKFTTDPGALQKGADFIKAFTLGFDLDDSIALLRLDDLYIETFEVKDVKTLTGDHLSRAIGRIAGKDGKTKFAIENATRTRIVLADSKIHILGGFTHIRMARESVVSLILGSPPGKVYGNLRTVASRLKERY", "assay": "MBP pull-down (amylose resin), Coomassie SDS-PAGE; tested with AMPPNP; Rio1 binding requires Nob1 as well as Pno1"}, "MBP-Nob1": {"molecular_target": "T2, MBP-Nob1 (Saccharomyces cerevisiae (strain ATCC …, UniProt Q08444))", "T2 chain": "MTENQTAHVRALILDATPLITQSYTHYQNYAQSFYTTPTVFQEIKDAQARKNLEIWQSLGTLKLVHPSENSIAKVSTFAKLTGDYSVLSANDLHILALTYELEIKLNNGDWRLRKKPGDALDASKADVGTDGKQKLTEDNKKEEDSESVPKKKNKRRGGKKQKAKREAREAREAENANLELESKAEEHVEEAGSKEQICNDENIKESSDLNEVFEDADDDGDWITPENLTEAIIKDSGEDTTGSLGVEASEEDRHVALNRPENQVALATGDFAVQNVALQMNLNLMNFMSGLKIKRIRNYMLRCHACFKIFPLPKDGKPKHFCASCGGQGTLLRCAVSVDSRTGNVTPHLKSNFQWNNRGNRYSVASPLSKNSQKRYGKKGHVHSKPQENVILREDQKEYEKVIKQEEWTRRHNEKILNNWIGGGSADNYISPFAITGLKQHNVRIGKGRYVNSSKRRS", "assay": "MBP pull-down (amylose resin), Coomassie SDS-PAGE; tested with AMPPNP; Rio1 binding requires Pno1 as well as Nob1"}, "Nob1–Pno1 complex": {"molecular_target": "T3, Nob1–Pno1 complex (S. cerevisiae, UniProt Q08444 1-459; Q99216 1-274)", "T3 construct": "Nob1, S. cerevisiae, untagged, as m2; Pno1, S. cerevisiae, untagged, as m3; The two proteins were added together with MBP-Rio1 and preincubated; the complex was not isolated beforehand; also called Nob1 and Pno1", "T3 sequence (looked up) 1": "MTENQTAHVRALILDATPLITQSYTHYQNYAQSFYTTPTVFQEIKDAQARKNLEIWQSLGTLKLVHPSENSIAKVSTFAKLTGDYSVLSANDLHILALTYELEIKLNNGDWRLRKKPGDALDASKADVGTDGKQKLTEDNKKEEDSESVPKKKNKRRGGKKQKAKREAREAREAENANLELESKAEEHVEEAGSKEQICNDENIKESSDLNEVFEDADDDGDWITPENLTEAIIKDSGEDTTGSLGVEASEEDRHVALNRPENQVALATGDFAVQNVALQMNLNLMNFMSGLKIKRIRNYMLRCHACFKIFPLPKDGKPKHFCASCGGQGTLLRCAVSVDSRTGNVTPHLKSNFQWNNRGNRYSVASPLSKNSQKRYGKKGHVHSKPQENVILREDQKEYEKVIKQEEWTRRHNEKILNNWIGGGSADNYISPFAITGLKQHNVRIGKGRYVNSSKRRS", "T3 sequence (looked up) 2": "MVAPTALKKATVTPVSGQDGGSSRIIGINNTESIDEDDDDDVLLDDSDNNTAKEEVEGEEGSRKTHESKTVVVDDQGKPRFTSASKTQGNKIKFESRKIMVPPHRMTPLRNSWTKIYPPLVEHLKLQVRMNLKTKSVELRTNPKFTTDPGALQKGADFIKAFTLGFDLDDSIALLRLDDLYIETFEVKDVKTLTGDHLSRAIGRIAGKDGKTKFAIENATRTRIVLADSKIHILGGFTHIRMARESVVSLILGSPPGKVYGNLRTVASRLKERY", "assay": "pull-down; 7 μM MBP-tagged protein held on amylose resin, 20 μM untagged protein; 50 mM HEPES pH 7.5, 200 mM NaCl, 5 mM MgCl2, 2 mM AMPPNP; 4 °C; eluted with 50 mM maltose; Coomassie-stained SDS-PAGE", "conditions": "both partners purified"}, "[1]": {"molecular_target": "T4, maltose-binding protein (MBP)-Rio1 (Saccharomyces cerevisiae (strain ATCC …, UniProt Q12196))", "T4 chain": "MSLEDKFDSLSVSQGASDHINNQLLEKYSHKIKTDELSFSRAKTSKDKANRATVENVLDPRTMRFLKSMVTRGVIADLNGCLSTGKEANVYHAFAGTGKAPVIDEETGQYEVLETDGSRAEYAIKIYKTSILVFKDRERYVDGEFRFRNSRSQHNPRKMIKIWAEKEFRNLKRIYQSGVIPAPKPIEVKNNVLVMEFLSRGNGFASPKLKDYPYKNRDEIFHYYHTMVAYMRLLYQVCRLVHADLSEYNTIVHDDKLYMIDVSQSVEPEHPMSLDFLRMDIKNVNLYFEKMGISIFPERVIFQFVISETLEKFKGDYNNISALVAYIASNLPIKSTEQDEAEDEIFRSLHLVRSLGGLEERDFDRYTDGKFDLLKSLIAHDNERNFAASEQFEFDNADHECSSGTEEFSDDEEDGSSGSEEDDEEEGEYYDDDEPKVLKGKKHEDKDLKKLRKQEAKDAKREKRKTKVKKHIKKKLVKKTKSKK", "assay": "MBP pull-down (amylose resin), Coomassie SDS-PAGE; tested with AMPPNP; Rio1 binds only when Nob1 and Pno1 are both present (with AMPPNP, little to none with ADP)"}}}
{"molecule": "D-A2 (3'-ITS1 product)", "values": [{"measurement": "Kd", "setting": "Nob1", "value": 960, "unit": "nM"}]}
{"molecule": "maltose-binding protein (MBP)-Rio1 (enzyme, S. cerevisiae, UniProt Q12196 1-484, looked up, Rio1, aspartate kinase, S. cerevisiae; cloned into pSV272 as a TEV-cleavable His6-MBP fusion; The tag was not cut off for this form; also called His-MBP-tagged Rio1; His6-MBP fusion protein; source: E. coli Rosetta DE3, purified (Ni-NTA, MonoQ, Superdex200)) MSLEDKFDSLSVSQGASDHINNQLLEKYSHKIKTDELSFSRAKTSKDKANRATVENVLDPRTMRFLKSMVTRGVIADLNGCLSTGKEANVYHAFAGTGKAPVIDEETGQYEVLETDGSRAEYAIKIYKTSILVFKDRERYVDGEFRFRNSRSQHNPRKMIKIWAEKEFRNLKRIYQSGVIPAPKPIEVKNNVLVMEFLSRGNGFASPKLKDYPYKNRDEIFHYYHTMVAYMRLLYQVCRLVHADLSEYNTIVHDDKLYMIDVSQSVEPEHPMSLDFLRMDIKNVNLYFEKMGISIFPERVIFQFVISETLEKFKGDYNNISALVAYIASNLPIKSTEQDEAEDEIFRSLHLVRSLGGLEERDFDRYTDGKFDLLKSLIAHDNERNFAASEQFEFDNADHECSSGTEEFSDDEEDGSSGSEEDDEEEGEYYDDDEPKVLKGKKHEDKDLKKLRKQEAKDAKREKRKTKVKKHIKKKLVKKTKSKK", "values": [{"measurement": "binding result", "setting": "MBP-Pno1", "value": "no binding"}, {"measurement": "binding result", "setting": "MBP-Nob1", "value": "no binding"}, {"measurement": "binding result", "setting": "Nob1–Pno1 complex", "value": "binds"}]}
{"molecule": "Nob1 (protein) MTENQTAHVRALILDATPLITQSYTHYQNYAQSFYTTPTVFQEIKDAQARKNLEIWQSLGTLKLVHPSENSIAKVSTFAKLTGDYSVLSANDLHILALTYELEIKLNNGDWRLRKKPGDALDASKADVGTDGKQKLTEDNKKEEDSESVPKKKNKRRGGKKQKAKREAREAREAENANLELESKAEEHVEEAGSKEQICNDENIKESSDLNEVFEDADDDGDWITPENLTEAIIKDSGEDTTGSLGVEASEEDRHVALNRPENQVALATGDFAVQNVALQMNLNLMNFMSGLKIKRIRNYMLRCHACFKIFPLPKDGKPKHFCASCGGQGTLLRCAVSVDSRTGNVTPHLKSNFQWNNRGNRYSVASPLSKNSQKRYGKKGHVHSKPQENVILREDQKEYEKVIKQEEWTRRHNEKILNNWIGGGSADNYISPFAITGLKQHNVRIGKGRYVNSSKRRS", "values": [{"measurement": "binding result", "setting": "[1]", "value": "no binding"}]}
{"molecule": "Pno1 (protein) MVAPTALKKATVTPVSGQDGGSSRIIGINNTESIDEDDDDDVLLDDSDNNTAKEEVEGEEGSRKTHESKTVVVDDQGKPRFTSASKTQGNKIKFESRKIMVPPHRMTPLRNSWTKIYPPLVEHLKLQVRMNLKTKSVELRTNPKFTTDPGALQKGADFIKAFTLGFDLDDSIALLRLDDLYIETFEVKDVKTLTGDHLSRAIGRIAGKDGKTKFAIENATRTRIVLADSKIHILGGFTHIRMARESVVSLILGSPPGKVYGNLRTVASRLKERY", "values": [{"measurement": "binding result", "setting": "[1]", "value": "no binding"}]}
